Experimental data from patent publication US20140178963A1 (MINERVA BIOTECHNOLOGIES, published 2014).

Biological target: T1, NM23-wt containing the Strep-tag II (UniProt P15531 1-152, limits assumed)
T1 construct: Strep-tag II version used in the nanoparticle assay; also called wild type hexamers; not shown: Strep-tag II
Experiment: gold nanoparticle color change assay
Excerpt: A nanoparticle assay was used to characterize the binding of NM23 dimers versus hexamers. A MUC1*ecd peptide ([…]) (SEQ ID NO:44) was immobilized on NTA-SAM-coated gold colloids. NM23-wt, NM23S120G-dimer and NM23S120G-hexamer were expressed and purified with the Strep-tag II (FIG. 22c). The addition of NM23S120G-dimer induced a pink to blue solution color change, indicating a specific binding, which was then inhibited by the addition of an anti-MUC1* Fab.

T1 sequence (P15531 whole entry): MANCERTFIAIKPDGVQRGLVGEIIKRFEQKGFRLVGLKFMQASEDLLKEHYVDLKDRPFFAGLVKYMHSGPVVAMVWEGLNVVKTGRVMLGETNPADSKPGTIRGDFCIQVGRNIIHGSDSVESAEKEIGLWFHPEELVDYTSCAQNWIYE

binding result: no binding (tested: 64 nM)
B1: MUC1*ecd peptide (QFNQYKTEAASRYNLTISDVSVSDVPFPFSAQSGAHHHHHH) immobilized on NTA-SAM-coated gold colloids (peptide)
peptide: QFNQYKTEAASRYNLTISDVSVSDVPFPFSAQSGAHHHHHH
notes: also called MUC1*ecd peptide (PSMGFR-His tagged)
